This data set can be described thus: label from the status in PepcDB records.
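Further: failed if final PepcDB status was selected cloned or expressed and not failed if soluble or beyond.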

Regarding “MKRLFIASLLAFAPFTWALDQAGSQRLSDLQQRWAQIQYQMPKDKRADAFEKLAGDAATFVRQYPGTPEPLIWEGIINSSWAGATGGLGALGKVKAAKASLEQAMKLDPAALQGSAYTSLGTLYDQVPGWPIGFGDAEMADKMLRKALQINPNGIDSNYFWADHLYRQKRYPEATAALQKALQAPPRPGRELADQGRRADIDALLKTIKDKQD”, the protein production entry is “failed”.

“MKRNNKSAIALIALSLLALSSGAAFAGHHWGNNDGMWQQGGSPLTTEQQATAQKIYDDYYTQTSALRQQLISKRYEYNALLTASSPDTAKINAVAKEMESLGQKLDEQRVKRDVAMAQAGIPRGAGMGYGGCGGYGGGYHRGGGHMGMGNW”: the protein production entry is “not failed”.

For “MKRPRGKPLFKPVKERNPVAVGVAGLLVLTLVALLVYNVDRLPFGGGTTYSADFSESAGLDEGDEVRIAGVKVGQVTGVALDGAKVKVSFEVEDAWIGDRTTAAIAIKTVLGDKYLALDPLGSGRQDPGARIPLARTTSPYDVTQAFQDLSGTVDDIDTGRLAESFETISDTFKDSPPHVRKAATGLSDLSKSISKRDAKLSELLKGSARFTKTLENNKSSFETLIEDGGPLLGELRDRRTAINALLKGSQDLGTELGGLVKDNEKQLGPTLKALGRVTSVLEKNNTRLGETLALVGPYYRLVGNTLGNGRWFDSYLCGVVPRDYLPETSQPSTGCLPPKQPAAAQGSGARLEHHHHHH”, the protein production result is “failed”.

Regarding “MKRSCMPARSNRNRINSALRGQLLRYLLNGLVATAVHYTILRFTLEVLGLHSAGLANGIAAIFGIIVSFIGNRYFVFRIVQVPLAKQALLFILTYFCIALIHTCILYFWTDVYNLNYTLGFLMATAMQVVFSFFSNKFMVFK”, the protein production entry was “failed”.

On to “MKRSSLLVRMVISIFLVFLILLALVGTFYYQSSSSAIEATIEGNSQTTISQTSHFIQSYIKKLETTSTGLTQQTDVLAYAENPSQDKVEGIRDLFLTILKSDKDLKTVVLVTKSGQVISTDDSVQMKTSSDMMAEDWYQKAIHQGAMPVLTPARKSDSQWVISVTQELVDAKGANLGVLRLDISYETLEAYLNQLQLGQQGFAFIINENHEFVYHPQHTVYSSSSKMEAMKPYIDTGQGYTPGHKSYVSQEKIAGTDWTVLGVSSLEKLDQVRSQLLWTLLGASVTSLLVCLCLVWFSLKRWIAPLKDLRETMLEIASGAQNLRAKEVGAYELREVTRQFNAMLDQIDQLMVAIRSQEETTRQYQLQALSSQINPHFLYNTLDTIIWMAEFHDSQRVVQVTKSLATYFRLALNQGKDLICLSDEINHVRQYLFIQKQRYGDKLEYEINENVAFDNLVLPKLVLQPLVENALYHGIKEKEGQGHIKLSVQKQDSGLVIRIEDDGVGFQDAGDSSQSQLKRGGVGLQNVDQRLKLHFGANYHMKIDSRPQKGTKVEIYINRIETS”, for which the protein production result is recorded as “failed”.

On to “MKRSTEFLKSLDVKLILILLALCVTSIAAIYSSQQTGQYGESNFAMKQGLNYIIGVVLLLLVASIDLDQLQKLSWPLYIVGFASLILLKILPVSTFTPEKLGAKRWFVFPLVGQIQPSEFFKISLLLVVASIAVKHNAQYMARTFQTDLKLVGKIVLVSLPPIAVVYSQPDTGMVFLYAAAIACILFMSGIQKKLIALCTVIPVTILSTLIFIYVRYEDFFFNKLVTLLKPHQQSRILGWLDPFEHTDQGYQTQQSILAVGSGGMEGKGFGEGNVYIPEKHTDFIFATIAEEGGFIVAALVVFLFLLLLYRTIIIGYSADNLFGTLLCAGSIGILTVQIFQNIGMIVGLMPVKGIALPFLSYGGSSLFSNMIMMGLILSVRKTYKKYMFSVK”, for which the protein production entry is reported as “failed”.

In the case of “MKRVPWVVGGLILIMAYNAALGTLAYWQRRDIIDESLREAVVVADILVREVEANLDRIDRTLSGLTEVLRAYPSAIDVHDPFTHRLLLRRHAITPSLAALFLIGGDGRLRNASLTDKVSEIDVSGEDYFAFHLSNVDDEFFIGAVTTNRLDKSWVIPVSRAVRDSFGRLTGVVAATITTDSIDQMIHSHQLSEGFAVTITQRDAGMIGCLGFTRCWGEGAPHRGDEGLAESGGSGEEVHYLPNGPGVGAFLRGPTYGVEVTVQASDRTLLQPWREKLAFILVLQVFGTLGLGFGITSLYYQMHHRRVSLLDLERANASLESKVAERTRQLAEGEERMRGFIMAARDAVVIIDQKGIISEFNPSATELFGYDVEEVRGQSVNMLMPATYARDHDGHLRKGKPSGQRAIGRGREMIGRRKNGSEFPIELTVGTQSFDGTRVHIGVIRDITERKATEETLRRLANIDGLTGVLNRRSFTEESELLLSLANRHGRRLSMMIVDADHFKGVNDTYGHDAGDRVLKALTGEIAGVLRKTDLLGRIGGEEFAILLPETDQEGAEGLAWRVVLAIRALEVPLPEGGVLKVTVSVGVSCRNTEAATFDWMLKEADTALYAAKHGGRDRVACFGQTQSVARS”, the protein production entry is recorded as “failed”.

For the sequence “MKRVVEAWDRFQIPLYITALIAGALVGLQWPGSTGGFESAINPALMALLYATFLGIPITRIGAALKDLRFLIVLMSVNFVAVPLVAFALSRFIAGDEALLIGFLLVILAPCIDYVIVFAGLARAAQDKLLAATPILMLVQILLIPVFLAVFVGSDALGSISFGPFVEAFFLLILIPLVAAAGTQQVARKWQVGRTIMAAAEAIMVPLMMLTLFAVIASQVEAVSGQFTDIATVVPLYVAFLMVMIPIGGGISKLGGLGFKEQRAIVFSGATRNSLVVLPLALALPAGLEIAAVVVVTQTLVELIGMVVYVRIIPLIFHEKQTYRKLSGIGES”, the protein production result is listed as “failed”.

For “MKSASGQEKSIVVRRFDPARFVALVRKESLQAMRDPSTLLIALVLPLILLFLFAYAVSLDVRHVRIGVVLESPGATARTLADAFSGTHYLDVTFAYDRREVAGKLIAGELRGYVVIPQNFERHFADTGSPLVQIITDGSQPNTANFVANYAQGVVQTWMASLTETMPMPAVQLEPRYWFNPELASRRALVPGAIAIIMTIIGTLLTALVVAREWERGTMEAILSTPASVLEILVGKLLPYFVLGMLSTLIAAALAVFLFNVPLRGSLFALLVLSAVFMMPALGQGLLISSLARNQFLASQLALFSGYLPAFMLSGFLFEIDAMPALIRAITWLIPARYFVSSLKTIFLAGDVWSVFLPDLLGMATIGLIFFLIAQRYTRKSLE”, the protein production result is “failed”.

With “MKSEMVLSFMATLAQEESHTKSEIMNASIEMRFRRGIFLTPTLLGYDHDEDGNLVVNEGEAKIVRLIFMMYLNGCTCQEIADTMTELGCETKKGNTVWSPGSILQILQNERHCGDVLARKTYTPNYLNHKSKKNMQNRPQYRKRNHHEAIISRDDFIAVQRLISNAKYGNKGILPELKVISNGVLKGFVSINPRWAGFKENDYISASLSVYDQMEQLSPSASSVEVQSGDFDLRGYEIARSQFFDGTDRITVTFSLNDIKFSTAAVRKLNSTLVELLLHPNKHLFAVRTASQAHRNAMQWAKKRGELSVPRAVSGTAFMPTVYALLGWNTDCRYRITGIRRGNGNDAVLLFNLEETEIFIPSDVIDEQQTSDARTDVKPFTDNQKKNVRAYPPDWADTFGSNYYCHAQAHELAGFNSRDVISNEAVAYKDSDIQVTSPDEVEKNIEQLMSDMKENSNELEHHHHHH”, the protein production result is listed as “failed”.

Take “MKSFSIPIRFMLISSFFMSFGYFAVYAFLAIYLLSFLHFSTFQVGTVLTVIIITSRVIPLFSGLIADKIGYIIMMIAGLFLRGIGFIALGICSDFYTVSISSALIGFGTAFYEPAARAIFGSQPAHLRKNLFTYLNLSFNCGAIIGPIAGGFLLLLDPIYAFSLTGSLMLLFALIFYLLKNHFQVTTESTSIALGIQTILQNKSFLLFSFIMIFFYIMFTQLTVALPLHMKNISNSNQLATLVITINAITGVIFMVLFRKLFHKYNTLSFIKYGILLMSISFLLIPLFQHPYWLFICVIFFTIGETLVLPNADIAIANYSNESYTATFFGFYQLSLAFGFIIGNYTGTWFKSKLNGMYTPWLIFGGIGLIGFISLHILNIKKERSKEDIYLLEKY”: the protein production result was “failed”.

“MKSKIFSTSLAFAFLLLITTVASAGQEIQITPYGERGLNPAIYDNKIAWLDKYINGSLHLRDLSTGKEIQITEDPWYSYLAVYNDKIVWGPGGQNIYLYNISTNHKTLLSIPESENQGSRDSLTIYGDKIVWRDQSGGYQDIYMYDLSTYNKTRITTNQSTKDPVIYGDKIVWQEDPSFGFGSSYHDIYVYNLSTSNKTRVTTNRSASSPNVYGDRIVYMESNNIYFHNLSTSLETQITFNGSRKDKLAIYGDRIVWQDDRNGNWDVYVYDLSEDKEIQITNDESDQLNPAIYGDKIVWEDYRNDRENMYYCSIYMYDFSAKPTMPFASFSANITSKSGNMPLTVLFTCNSTGGTPTSWYWDFGDGINSKHAQTATHTFKKPGTYDVSLTVTNFAGNSTLKKSNYITVTPQQAPIADFFSPEVYHANTYGGSVPTKTVSFVDNSTGSPTSWLWDFGDGNTSTEQNPTHVYDVEGGYTVNLTVKNVVGSNTTSKYGYVLVGLGDGSVAPEYFSSSVTSGDAPLKVTFHGGTGYANDWTFGDGSRQSVGENQTVEHTYLEPGQYTVSLSEYNVGGTAAITKYHYITVTGLTRPVASFTSEKVSVPMSLTIAFTDTSIGKPTSWYWDFGDGDSSTEQNPTHTYSAAGNYTVSLTASNENSTNSTFRVIDVFKTTGPFAYVISGNNISVIDTATDKVVDTIEIGSGLVGVAVNPTGTKVYVANEGNNTVSVIDTSISKVIATVNGLNSPYAIAITPDGKKAYVTNNSGAVFENGTVYVIDTGTSTVMNTVNVGSVPHGVAVSLDGAKVYVTNYYDISVIDTATNKVTATLNVGQYPDGIAVSPDGTKIYVTNGGSDNVSVIDTETNNVTATLPVGDNPVRVAVTPDGTKLYVTNYKGNTISVINTTTNTVTATIPGDGPYGVSITPDGKKVYVTNLGSDLSGKTVSVIDTAANTVIATVKVGSYPREVAVAPYGK”: the protein production entry is “failed”.

“MKSLSEHVDFSESKTGNSSSESETGQTLIFLLADLAQRQQIDNTLQSFLNESNAEEILLVANIRCADDEVWLRKYCARFPSVNAILNRRAKSATVLEAQGRWLARYRSQVVLSVDCDESGVKILRKVLPFFTPPVAMEMQKSTLSCQPGEQGLTLIIPAHDCDLYLTDCLASALVIESDKTLVVVDDGSLDDTHGVIAGFASQYPEIIDHISICKASGLPAVPRNIGLASVQTDTFGFIDADDWISPGEYTSALYEMQQMSADIATAAGFTRHYPDRTESLLQKCFTIPENEPANVLEGSFFSNIWNRIYARSILLRSGAYFPRTHFSEDFCFSVWSHFYAEKTIQVSVSFYHHRYGRQGSTTDNRAGSGAFSHITEFHRELEMYLADPFMRKALATILRKRMGSFQYTLKLLPPELIQPFKTALQEMLKPLNRYFISDKEPNKRDIATFAALGISDLLYQRPRSKFLGMRNWGRKWLGMYQQLTKRESHENS”: the protein production result is on record as “failed”.

Take “MKSLVKVSLAALALAFAVSAYAAEKELIVATDTAFVPFEFKQGDKYVGFDIDLWDAIAKKLDLKYTLKPMDFSGIIPALQTKNVDLALAGITITDERKKAVDFSDGYYNSGLLVMVKADNNDIKSEADLQGKVLAVKSGTGSVDYAKANIKTKDLRQFPNIDNAYLELGTGRADAVLHDTPNILYFIKTAGNGQFKAVGESIKAQQYGVAFPQGSDLREKVNAALKSLKEDGTYAEIYKKWFGVEPK”: the protein production result was “failed”.

Turning to “MKTASYAQSFSRAAKEYDAYAYLQQTVARELASWIEGMECESILDLGCGTGALWRALRFKPRFFTGVDLSMEMLDLHPQDPAIRLIQSDFNHPSLYEHSYDLIAASSSLQWSRDLAQSFDLIAKSAQNVAFAIFTSESLWEIHDYVDSHSPIPSKERIESLLKERFAGEFELKRYPLSFPSRVAMLSYLKGSGISGGRRLGFAQSK”, the protein production result is on record as “failed”.
